# Columns and labels:
# SXR [1] = biological target: T1, SXR (Homo sapiens, UniProt O75469); experiment: Microplate thermal shift assay (Thermofluor) of SXR with ligands, co-activator peptide SRC1-NR2 and co-repressor peptide NCoR-1; conditions: for ΔΔTm SRC1-NR2 / ΔTm ligand: SXR 6 μM, ligand 50 μM; for ΔΔTm SRC1-NR2: co-activator peptide SRC1-NR2 100 μM, change from the receptor-ligand ΔTm; for ΔTm ligand: average of four experiments; for ΔTm at 100 µM: read-out: ΔΔTm NcoR1-NR2
# T1 sequence (O75469 1-434): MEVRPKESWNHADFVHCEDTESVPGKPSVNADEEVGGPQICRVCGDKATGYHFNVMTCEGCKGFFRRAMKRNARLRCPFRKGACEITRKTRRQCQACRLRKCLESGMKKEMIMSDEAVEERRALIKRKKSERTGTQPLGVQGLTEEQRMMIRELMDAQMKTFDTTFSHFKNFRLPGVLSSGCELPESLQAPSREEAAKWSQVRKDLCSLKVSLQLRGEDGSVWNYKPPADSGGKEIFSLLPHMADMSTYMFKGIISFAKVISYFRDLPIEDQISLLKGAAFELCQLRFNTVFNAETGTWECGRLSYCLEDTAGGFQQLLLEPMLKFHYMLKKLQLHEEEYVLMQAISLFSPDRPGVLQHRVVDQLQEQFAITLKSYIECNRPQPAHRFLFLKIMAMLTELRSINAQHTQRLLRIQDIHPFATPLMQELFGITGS
# Description: A 2 μL ligand solution at 2 times the final concentration was dispensed with a micropipette into a 384 well black wall Greiner plate. Then, 2 μL of the protein dye solution was dispensed on top of the ligand solution in the 384 well plate. The plates were spun to ensure mixing of the protein-dye and ligand solutions followed by layering of 1 μL of silicone oil to prevent evaporation during heating of the samples. […] The values for the co-regulators represent a change in Tm stabilization from the receptor-ligand ΔTm values.
# SXR [2] = biological target: T1, SXR; conditions: from Ekins & Erickson, Drug Metabolism and Disposition, 30, 96-99 and references therein; cited from earlier work
# ER-α [3] = biological target: T2, ER-α (UniProt P03372 297-554, limits assumed); experiment: Thermofluor thermal shift; ER-α 8 µM, no ligand; peptide 100 µM
# T2 construct: also called estrogen receptor alpha
# T2 sequence (looked up): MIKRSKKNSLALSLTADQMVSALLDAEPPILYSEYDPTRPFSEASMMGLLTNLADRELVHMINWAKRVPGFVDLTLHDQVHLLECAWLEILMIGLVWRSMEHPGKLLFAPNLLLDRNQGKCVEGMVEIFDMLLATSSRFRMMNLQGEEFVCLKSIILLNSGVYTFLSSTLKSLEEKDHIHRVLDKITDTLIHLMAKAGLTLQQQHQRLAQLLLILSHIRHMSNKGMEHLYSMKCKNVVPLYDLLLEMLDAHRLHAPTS
# ER-β [4] = biological target: T3, ER-β (UniProt Q92731 256-505, limits assumed); experiment: Thermofluor thermal shift; ER-β 8 µM, no ligand; peptide 100 µM
# T3 construct: also called estrogen receptor beta
# SXR [5] = biological target: T4, SXR (UniProt O75469 130-434, limits assumed); experiment: Thermofluor thermal shift; SXR 6 µM, ligand free; peptide 100 µM
# T4 construct: also called steroid and xenobiotic receptor; steroid X receptor
# T4 sequence (looked up): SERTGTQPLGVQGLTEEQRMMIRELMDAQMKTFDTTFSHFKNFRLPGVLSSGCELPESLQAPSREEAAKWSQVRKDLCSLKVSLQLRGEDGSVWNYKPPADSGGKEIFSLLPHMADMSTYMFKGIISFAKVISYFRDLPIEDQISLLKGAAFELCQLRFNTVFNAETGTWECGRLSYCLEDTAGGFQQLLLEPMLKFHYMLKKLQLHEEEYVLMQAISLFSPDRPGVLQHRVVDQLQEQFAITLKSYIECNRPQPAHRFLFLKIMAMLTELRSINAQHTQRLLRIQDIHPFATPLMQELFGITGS
# SXR [6] = biological target: T4, SXR; experiment: Thermofluor thermal shift; SXR 6 µM with taxol 50 µM; peptide 100 µM
# ER-α [7] = biological target: T2, ER-α; experiment: Thermofluor thermal shift; ER-α 8 µM with estrone 20 µM; peptide 100 µM
# ER-β [8] = biological target: T3, ER-β; experiment: Thermofluor thermal shift; ER-β 8 µM with estrone 20 µM; peptide 100 µM
# SXR [9] = biological target: T4, SXR; experiment: Thermofluor thermal shift; SXR 6 µM with cortisone 50 µM; peptide 100 µM
# SXR [10] = biological target: T4, SXR; experiment: Thermofluor thermal shift; SXR 6 µM with estradiol 50 µM; peptide 100 µM
# ER-α [11] = biological target: T2, ER-α; experiment: Thermofluor thermal shift; ER-α 8 µM with estradiol 20 µM; peptide 100 µM
# ER-α [12] = biological target: T2, ER-α; experiment: Thermofluor thermal shift; ER-α 8 µM with tamoxifen 20 µM; peptide 100 µM
# ER-β [13] = biological target: T3, ER-β; experiment: Thermofluor thermal shift; ER-β 8 µM with estradiol 20 µM; peptide 100 µM
# ER-β [14] = biological target: T3, ER-β; experiment: Thermofluor thermal shift; ER-β 8 µM with tamoxifen 20 µM; peptide 100 µM
# SXR [15] = biological target: T4, SXR; experiment: Thermofluor thermal shift; SXR 6 µM with clofibrate 50 µM; peptide 100 µM
# SXR [16] = biological target: T4, SXR; experiment: Thermofluor thermal shift; SXR 6 µM with lovastatin 50 µM; peptide 100 µM
# ER-α [17] = biological target: T2, ER-α; experiment: Thermofluor thermal shift; ER-α 8 µM with ICI-182780 20 µM; peptide 100 µM
# ER-β [18] = biological target: T3, ER-β; experiment: Thermofluor thermal shift; ER-β 8 µM with ICI-182780 20 µM; peptide 100 µM
# SXR [19] = biological target: T4, SXR; experiment: Thermofluor thermal shift; SXR 6 µM with 4-androstene 50 µM; peptide 100 µM
# SXR [20] = biological target: T4, SXR; experiment: Thermofluor thermal shift; SXR 6 µM with androsterone 50 µM; peptide 100 µM
# ER-α [21] = biological target: T2, ER-α; experiment: Thermofluor thermal shift; ER-α 8 µM with 2-methoxy-E2 20 µM; peptide 100 µM
# ER-β [22] = biological target: T3, ER-β; experiment: Thermofluor thermal shift; ER-β 8 µM with 2-methoxy-E2 20 µM; peptide 100 µM
# SXR [23] = biological target: T4, SXR; experiment: Thermofluor thermal shift; SXR 6 µM with corticosterone 50 µM; peptide 100 µM
# SXR [24] = biological target: T4, SXR; experiment: Thermofluor thermal shift; SXR 6 µM with hydrocortisone 50 µM; peptide 100 µM
# ER-α [25] = biological target: T2, ER-α; experiment: Thermofluor thermal shift; ER-α 8 µM with 4-OH-tamoxifen 20 µM; peptide 100 µM
# ER-β [26] = biological target: T3, ER-β; experiment: Thermofluor thermal shift; ER-β 8 µM with 4-OH-tamoxifen 20 µM; peptide 100 µM
# SXR [27] = biological target: T4, SXR; experiment: Thermofluor thermal shift; SXR 6 µM with lithocholic acid 50 µM; peptide 100 µM
# ER-α [28] = biological target: T2, ER-α; experiment: Thermofluor thermal shift; ER-α 8 µM with 17-α-ethylene-E2 20 µM; peptide 100 µM
# ER-β [29] = biological target: T3, ER-β; experiment: Thermofluor thermal shift; ER-β 8 µM with 17-α-ethylene-E2 20 µM; peptide 100 µM
# SXR [30] = biological target: T4, SXR; experiment: Thermofluor thermal shift; SXR 6 µM with 17-α-hydroxyprogesterone 50 µM; peptide 100 µM
# SXR [31] = biological target: T4, SXR; experiment: Thermofluor thermal shift; SXR 6 µM with 11-α-hydroxy-progesterone 50 µM; peptide 100 µM
# T3 sequence (Q92731 256-505 limits assumed): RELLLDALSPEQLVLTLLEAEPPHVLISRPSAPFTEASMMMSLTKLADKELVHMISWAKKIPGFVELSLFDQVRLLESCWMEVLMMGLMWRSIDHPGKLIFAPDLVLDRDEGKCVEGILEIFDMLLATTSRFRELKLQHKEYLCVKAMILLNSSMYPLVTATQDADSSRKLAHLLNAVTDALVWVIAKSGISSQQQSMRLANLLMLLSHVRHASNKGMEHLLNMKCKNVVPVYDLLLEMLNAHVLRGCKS
Molecule,Kd (SXR [1]),ΔΔTm SRC1-NR2 (SXR [1]),ΔTm ligand (SXR [1]),ΔTm at 100 µM (SXR [1]),change in Tm stabilization from the receptor-ligand ΔTm (ER-α [3]),change in Tm stabilization from the receptor-ligand ΔTm (ER-β [4]),ΔΔTm (SXR [5]),ΔΔTm (SXR [6]),change in Tm stabilization from the receptor-ligand ΔTm (ER-α [7]),change in Tm stabilization from the receptor-ligand ΔTm (ER-β [8]),ΔΔTm (SXR [9]),ΔΔTm (SXR [10]),change in Tm stabilization from the receptor-ligand ΔTm (ER-α [11]),change in Tm stabilization from the receptor-ligand ΔTm (ER-α [12]),change in Tm stabilization from the receptor-ligand ΔTm (ER-β [13]),change in Tm stabilization from the receptor-ligand ΔTm (ER-β [14]),ΔΔTm (SXR [15]),ΔΔTm (SXR [16]),change in Tm stabilization from the receptor-ligand ΔTm (ER-α [17]),change in Tm stabilization from the receptor-ligand ΔTm (ER-β [18]),further results
CC[C@H](C)C(=O)O[C@H]1C[C@@H](C)C=C2C=C[C@H](C)[C@H](CC[C@@H]3C[C@@H](O)CC(=O)O3)[C@H]21 [Lovastatin],0.55 µM,3.0,6.3 °C,1.2 °C,–,–,–,–,–,–,–,–,–,–,–,–,–,–,–,–,Probability Agonist (statistical probability of agonist state) (SXR [1]; computed from affinities derived from ΔΔTm with co-regulator peptides (FIG. 3)): 0.85; fold activation (SXR [2]): 5-fold
CC(=O)O[C@H]1C(=O)[C@@]2(C)[C@H]([C@H](OC(=O)c3ccccc3)[C@]3(O)C[C@H](OC(=O)[C@H](O)[C@@H](NC(=O)c4ccccc4)c4ccccc4)C(C)=C1C3(C)C)[C@]1(OC(C)=O)CO[C@@H]1C[C@@H]2O [Taxol],23 µM,2.5,1.3 °C,4.7 °C,–,–,–,–,–,–,–,–,–,–,–,–,–,–,–,–,EC50 (SXR [2]): 5 µM
co-repressor peptide NCoR-1 (from UniProt O75376 2044-2066),–,–,–,–,0 °C,-0.4 °C,6.7 °C,4.7 °C,-0.3,-0.3,3.6 °C,2.3 °C,0 °C,0.1 °C,0 °C,0.4 °C,3.4 °C,1.2 °C,-0.6,0.3 °C,ΔΔTm (SXR [19]): 3.6 °C; ΔΔTm (SXR [20]): 3.8 °C; change in Tm stabilization from the receptor-ligand ΔTm (ER-α [21]): -0.7 °C; change in Tm stabilization from the receptor-ligand ΔTm (ER-β [22]): -0.7; ΔΔTm (SXR [23]): 0.5 °C; ΔΔTm (SXR [24]): 3.7 °C; change in Tm stabilization from the receptor-ligand ΔTm (ER-α [25]): 0.1 °C; change in Tm stabilization from the receptor-ligand ΔTm (ER-β [26]): 0.3; ΔΔTm (SXR [27]): 1.4 °C; change in Tm stabilization from the receptor-ligand ΔTm (ER-α [28]): -0.1 °C; change in Tm stabilization from the receptor-ligand ΔTm (ER-β [29]): -0.7; ΔΔTm (SXR [30]): 3.5 °C; ΔΔTm (SXR [31]): 1 °C
"LTERHKILHRLLQEGSPSD (peptide, UniProt Q15788 683-701, looked up, Peptide fragment of SRC-1) [co-activator peptide SRC1-NR2]",–,–,–,–,0.8,0.7,2.9,2.5,3,3.8,2.9,3.9,4.9,-0.5,3.4,0.2,3.3,3,0.2,0.4,ΔΔTm (SXR [19]): 2.9; ΔΔTm (SXR [20]): 3.5; change in Tm stabilization from the receptor-ligand ΔTm (ER-α [21]): 5.5; change in Tm stabilization from the receptor-ligand ΔTm (ER-β [22]): 4.4; ΔΔTm (SXR [23]): 2.7; ΔΔTm (SXR [24]): 3.3; change in Tm stabilization from the receptor-ligand ΔTm (ER-α [25]): 0.2; change in Tm stabilization from the receptor-ligand ΔTm (ER-β [26]): 0.2; ΔΔTm (SXR [27]): 2.9; change in Tm stabilization from the receptor-ligand ΔTm (ER-α [28]): 4.5; change in Tm stabilization from the receptor-ligand ΔTm (ER-β [29]): 2.6; ΔΔTm (SXR [30]): 3.3; ΔΔTm (SXR [31]): 4.6

# Source: patent publication US20060099643A1, “Method for determining the regulation of xenobiotic removal” (priority 2002, published 2006)
